± gives the uncertainty stated by the source.
Test: self-splicing fitness, log relative to wild type (ln ratio); higher = more splicing; Tetrahymena group I intron in knt gene, E. coli kanamycin selection, DiMSum; sequences stand for … in CUCUCU…GGAGGGAAAAGUUAUCAGGCAUGCACCUGGUAGCUAGUCUUUAAACCAAUAGAUUGCAUCGGUUUAAAAGGCAAGACCGUCAAAUUGCGGGAAAGGGGUCAACAGCCGUUCAGUACCAAGUCUCAGGGGAAACUUUGAGAUGGCCUUGCAAAGGGUAUGGUAAUAAGCUGACGGACAUGGUCCUAACCACGCAGCCAAGUCCUAAGUCAACAGAUCUUCUGUUGAUAUGGAUGCAGUUCACAGACUAAAUGUCGGUCGGGGAAGAUGUAUUCUUCUCAUAAGAUAUAGUCGGACCUCUCCUUAAUGGGAGCUAGCGGAUGAAGUGAUGCAACACUGGAGCCGCUGGGAACUAAUUUGUAUGCGAAAGUAUAUUGAUUAGUUUUGGAGUACUCGUGGUCG
Outline: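 Fitness was computed with DiMSum as the error-weighted combination of replicate fold changes, kanamycin versus none, each normalised to wild type. The library randomised all eight intron nucleotides of the P1ex region, with the intron placed in the knt kanamycin-resistance gene on pET-22b(+) in E. coli BL21(DE3). Six replicate transformations were grown overnight at 37°C or 30°C on LB agar with or without 25 μg/mL kanamycin, plus 100 μg/mL carbenicillin, 50 μM IPTG and 0.2% rhamnose. Pooled colonies were amplicon-sequenced on an Illumina HiSeq 2500.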

Sequence	self-splicing fitness (ln) (30 °C)	self-splicing fitness (ln) (37 °C)
ACAUAGCAAUAUUACGGCCG	-0.333 ± 0.15	0.385 ± 0.24
ACAUAGCAAUAUUACGGCUA	-0.773 ± 0.055	-0.391 ± 0.068
ACAUAGCAAUAUUACGGGGC	-2.87 ± 0.12	-1.81 ± 0.13
ACAUAGCAAUAUUACGGGGG	-3.09 ± 0.14	-2.58 ± 0.2
ACAUAGCAAUAUUACGGUGA	-0.929 ± 0.066	-0.247 ± 0.086
ACAUAGCAAUAUUACGUCCG	-1.62 ± 0.11	-1.2 ± 0.14
ACAUAGCAAUAUUACGUGAG	-0.863 ± 0.036	-0.206 ± 0.062
ACAUAGCAAUAUUACGUUGC	-4.02 ± 0.33	-2 ± 0.28
ACCAAGCAAUAUUACGACGA	-1.11 ± 0.12	-0.623 ± 0.13
ACCAAGCAAUAUUACGCGGA	-1.11 ± 0.068	-0.537 ± 0.077
ACCAAGCAAUAUUACGCGUA	-1.11 ± 0.075	-0.487 ± 0.075
ACCAAGCAAUAUUACGCUUC	-3.27 ± 0.15	-1.71 ± 0.12
ACCAAGCAAUAUUACGGAAC	-3.63 ± 0.21	-1.99 ± 0.2
ACCAAGCAAUAUUACGGACC	-0.368 ± 0.098	-0.214 ± 0.12
ACCAAGCAAUAUUACGGCAU	-0.931 ± 0.049	-0.0435 ± 0.066
ACCAAGCAAUAUUACGGGCA	-0.376 ± 0.06	-0.0824 ± 0.072
ACCAAGCAAUAUUACGGGGU	-3.66 ± 0.14	-3.5 ± 0.19
ACCAAGCAAUAUUACGGGUC	-4.12 ± 0.17	-2.67 ± 0.14
ACCAAGCAAUAUUACGGGUU	-4.06 ± 0.14	-3.14 ± 0.17
ACCAAGCAAUAUUACGGUCG	-3.81 ± 0.22	-2.56 ± 0.15
ACCAAGCAAUAUUACGUAAG	-2.18 ± 0.063	-1.37 ± 0.098
ACCAAGCAAUAUUACGUCAA	-3.35 ± 0.17	-3 ± 0.16
ACCAAGCAAUAUUACGUCGU	-2.34 ± 0.076	-1.88 ± 0.11

From the supplement of paper PMC7877785
